# From US20260008852A1 (CRYSTAL BIOSCIENCE, published 2026)
# Residue numbers refer to the chain shown, from its start.
# T1: His-tagged human B7-H3 (human, UniProt Q5ZPR3-2 29-245, limits assumed)
# T1 construct: Bought His-tagged protein coated on the ELISA plate; also called hu B7-H3; CD276
# T1 sequence (looked up): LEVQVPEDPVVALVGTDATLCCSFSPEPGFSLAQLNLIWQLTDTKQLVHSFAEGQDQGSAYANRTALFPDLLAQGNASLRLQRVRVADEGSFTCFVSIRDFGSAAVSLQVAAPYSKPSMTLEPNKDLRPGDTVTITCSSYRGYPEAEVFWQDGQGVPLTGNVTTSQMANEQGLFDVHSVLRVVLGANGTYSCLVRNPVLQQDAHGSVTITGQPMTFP
# T2: B7-H3 on B7-H3-expressing CHO cells (Genescript) (UniProt Q5ZPR3 29-534, limits assumed)
# T2 construct: whole, on cells; also called CHO-K1/B7-H3; MFI B7-H3
# T2 sequence (looked up): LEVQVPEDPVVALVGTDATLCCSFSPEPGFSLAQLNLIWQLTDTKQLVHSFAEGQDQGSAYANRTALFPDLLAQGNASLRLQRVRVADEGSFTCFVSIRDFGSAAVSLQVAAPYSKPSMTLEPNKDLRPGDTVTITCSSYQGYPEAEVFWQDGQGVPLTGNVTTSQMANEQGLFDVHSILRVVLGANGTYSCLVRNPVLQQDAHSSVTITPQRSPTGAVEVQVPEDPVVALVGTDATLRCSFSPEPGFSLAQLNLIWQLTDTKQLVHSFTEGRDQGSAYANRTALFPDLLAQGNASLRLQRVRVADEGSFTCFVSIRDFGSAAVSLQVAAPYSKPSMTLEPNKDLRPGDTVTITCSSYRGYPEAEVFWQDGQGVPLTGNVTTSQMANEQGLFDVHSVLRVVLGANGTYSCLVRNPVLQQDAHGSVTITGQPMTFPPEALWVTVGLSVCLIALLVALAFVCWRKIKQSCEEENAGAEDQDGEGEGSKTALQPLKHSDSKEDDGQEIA
# T3: His-tagged mouse B7-H3 (mouse, UniProt Q8VE98 29-244, limits assumed)
# T3 construct: Bought His-tagged protein coated on the ELISA plate; also called mu B7-H3; murine B7-H3
# T3 sequence (looked up): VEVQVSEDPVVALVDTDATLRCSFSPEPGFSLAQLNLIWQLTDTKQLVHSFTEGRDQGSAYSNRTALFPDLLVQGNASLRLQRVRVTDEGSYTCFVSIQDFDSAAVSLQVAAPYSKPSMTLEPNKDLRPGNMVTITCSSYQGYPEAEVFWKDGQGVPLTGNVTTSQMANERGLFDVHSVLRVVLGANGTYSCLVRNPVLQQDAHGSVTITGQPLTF
# T4: His-tagged cynomolgus monkey B7-H3 (cynomolgus monkey)
# T4 chain: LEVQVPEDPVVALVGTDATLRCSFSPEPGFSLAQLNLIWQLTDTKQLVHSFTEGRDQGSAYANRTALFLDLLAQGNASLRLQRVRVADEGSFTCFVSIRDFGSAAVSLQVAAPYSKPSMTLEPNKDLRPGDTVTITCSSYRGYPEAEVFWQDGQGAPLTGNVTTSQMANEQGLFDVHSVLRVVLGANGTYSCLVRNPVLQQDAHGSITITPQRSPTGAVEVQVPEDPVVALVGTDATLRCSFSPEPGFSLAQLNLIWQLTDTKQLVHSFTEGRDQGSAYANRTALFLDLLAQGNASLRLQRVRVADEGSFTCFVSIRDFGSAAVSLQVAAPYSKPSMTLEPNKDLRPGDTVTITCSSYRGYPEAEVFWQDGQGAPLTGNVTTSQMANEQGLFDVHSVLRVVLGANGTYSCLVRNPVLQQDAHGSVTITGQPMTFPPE
# B1: 40633p1.1.D11 (scFv, V domains shown)
# VH: EVQLLESGGGLVQPGGSLRLSCAASGFTFRSYAMSWVRQAPGKGLEWVAYIGSSGGTTYYADSVKGRFTISRDNSKNTLYLQMNSLRAEDTAVYYCVKESYYYMDVWGQGTTVTVSS
# VL: QSVLTQPPSASGTPGQRVTISCSATISNIDINRVSWYQQLPGTAPKLLIFNSQRPSGVPDRFSGSKSGTSASLAISGLQSEDEADYYCATWDDSLNSWVFGGGTKLTVL
# notes: Tested as scFv-Fc (Expi293 supernatant)
# B2: 40633p1.1.E4 (scFv, V domains shown)
# VH: EVQLLESGGGLVQPGGSLRLSCAASGFTFSSYWMSWVRQAPGKGLEWVSGISSSGSATYYADSVKGRFTISRDNSKNTLYLQMNSLRAEDTAVYYCARWNDYDIMDVWGQGTTVTVSS
# VL: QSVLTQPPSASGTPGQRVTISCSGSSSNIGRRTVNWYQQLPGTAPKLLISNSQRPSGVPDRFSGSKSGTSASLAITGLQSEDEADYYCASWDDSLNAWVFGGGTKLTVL
# notes: as for B1
# B3: 40633p1.2.D7 (scFv, V domains shown)
# VH: B2 VH with G10S
# VL: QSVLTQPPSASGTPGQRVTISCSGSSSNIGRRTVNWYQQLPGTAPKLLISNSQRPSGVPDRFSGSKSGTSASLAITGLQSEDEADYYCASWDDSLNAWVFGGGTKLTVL
# notes: as for B1
# B4: 40633p1.1.C11 (scFv, V domains shown)
# VH: B2 VH with S49A, S52N, S53R, S54N, S56G, A57T
# VL: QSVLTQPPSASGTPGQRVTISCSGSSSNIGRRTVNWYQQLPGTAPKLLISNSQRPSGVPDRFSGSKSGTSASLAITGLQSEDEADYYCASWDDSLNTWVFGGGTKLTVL
# notes: as for B1
# B5: 40633p1.1.G10 (scFv, V domains shown)
# VH: EVQLLESGGGLVEPGGSLRLSCAASGFSFSSYGMHWVRQAPGKGLDWVAVINGEGSGTYYADSVKGRFTISRDNSKSTLYLQMNSLRAEDTAVYYCTKYYYNYAMDVWGQGTTVTVSS
# VL: QSVLTQPPSASGTPGQRVTISCSGSRTDIGTTSVNWYQQLPGTAPKLLIYQSHQRPSGVPDRFSGSKSGTSASLAISGLQSEDEADYYCASWDASQNTWVFGGGTKLTVL
# notes: as for B1
# B6: 40633p1.1.B3 (scFv, V domains shown)
# VH: EVQLLESGGGLVQPGGSLRLSCAASGFTVSYYGMSWVRQAPGKGLEWVSAIKQDGSEKYYADSVKGRFTISRDNSKNTLYLQMNSLRAEDTAVYYCARHWNDYSNAMNVWGQGTTVTVSS
# VL: QSVLTQPPSASGTPGQRVTISCSGSTSNIGRESVYWYQQLPGTAPKLLIYTIDQRPSGVPDRFSGSKSGTSASLAISGLQSEDEADYYCGTWDDSLNAWVFGGGTKLTVL
# notes: as for B1
# B7: 40633p1.1.F2 (scFv, V domains shown)
# VH: EVQLLESGGGLVQPGGSLRLSCVASGLTFNGFAMTWVRQAPGKGLEWVSGISWNSGSIYYADSVKGRFTISRDNSKNTVYLQMSSLRAEDTAIYYCAKNWNDYYNSMDVWGQGTTVTVSS
# VL: B6 VL with T26R, R31T, E32K, S33Y, L40F, I52T, Q54R, G90S, T91A, S95R
# notes: as for B1
# B8: 40633p1.1.E3 (scFv, V domains shown)
# VH: B6 VH
# VL: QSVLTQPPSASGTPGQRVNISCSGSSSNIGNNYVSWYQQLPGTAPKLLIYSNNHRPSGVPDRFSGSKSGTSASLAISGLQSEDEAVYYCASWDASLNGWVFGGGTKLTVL
# notes: as for B1
# B9: 40633p1.1.G5 (scFv, V domains shown)
# VH: B6 VH with T28I, S30N, A40P, N77T, A106G
# VL: B6 VL with T26W, R31S, E32Y, S33N, V34S, Y35H, Q39K, I52T, Q54R, A98V
# notes: as for B1
# B10: 40633p1.1.H11 (scFv, V domains shown)
# VH: EVQLLESGGGLVQPGGSLRLSCAASGFTFSSYPMTWVRQAPGKGLEWVADINSGGGTTLYADAVKGRFTISRDNSKNIVYLQMNSLRGEDTAVYYCAKHLDYYSYGMDVWGQGTTVTVSS
# VL: QSVLTQPPSASGTPGQRVTISCSGVTSKIGSKYVHWYQQLPGTAPKLLIYRNFERPSGVPDRFSGSTSGTSASLAISGLQSEDEADYYCATWEGALNGWVFGGGTKLTVL
# notes: as for B1
# B11: 40633p1.1.E6 (scFv, V domains shown)
# VH: EVQLLESGGGLVQPGGSLRLSCAASGLTFSSYAMNWVRQAPGKGLEWVAGIGGSGSSTYHTDSVKGRFTISRDNSKNTLYLQMSSLRAEDAAVYYCAKEDHWSGGMDVWGQGTTVTVSS
# VL: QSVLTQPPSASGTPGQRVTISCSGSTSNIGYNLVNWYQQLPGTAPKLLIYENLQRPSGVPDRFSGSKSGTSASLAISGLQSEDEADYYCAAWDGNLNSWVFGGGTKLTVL
# notes: as for B1
# B12: 40633p1.1.G3 (scFv, V domains shown)
# VH: B11 VH with S84N
# VL: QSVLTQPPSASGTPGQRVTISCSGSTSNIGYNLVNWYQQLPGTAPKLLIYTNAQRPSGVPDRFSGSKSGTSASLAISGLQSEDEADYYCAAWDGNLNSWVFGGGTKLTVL
# notes: as for B1
# B13: 40633p1.1.G7 (scFv, V domains shown)
# VH: EVQLLESGGGLVQPGGSLRLSCAASGFTFSGSAMNWVRQAPGKGLEWVSAINSGGTTIYYADSVKGRFTVSRDNSKNTLYLQMNSLRAEDTAVYYCVKLDFYYGMDVWGEGTTVTVSS
# VL: QSVVTQPPSASGTPGQRVTVSCSGSSSNVGSKYVQWYQQLPGTAPKLLIYATDRRPSGVPDRFSGSKSGTSASLAISGLQSEDEADYYCASWDDSLNAWVFGGGTKLTVL
# notes: as for B1
# Target: T1, His-tagged human B7-H3
# Experiment: ELISA OD450 on hu B7-H3 over OD450 on mu B7-H3
# Protocol: (§1) The variable regions of heavy and light chains were cloned and assembled into a single chain Fv-Fc (ScFv-Fc) mammalian expression vector. Sanger sequencing was performed by GeneWiz and sequences were evaluated using DNASTAR Lasergene 15. Unique scFv-Fes were transiently expressed in Expi293 cells (Life Technologies, #A14527) grown in Expi293 Expression Medium (Life Technologies, #A1435101) after transfection using the ExpiFectamine transfection reagent and supplements (Life Technologies, #A14524). Cells were incubated for 3-5 days with shaking at 37° C. in a 5% CO2 humidified incubator.
row,hu:mu ratio,Binder
1,1.18,B1
2,1.29,B2
3,1.45,B3
4,1.13,B4
5,1.32,B5
6,1.11,B6
7,1.47,B7
8,3.01,B8
9,3.09,B9
10,1.1,B10
11,2.44,B11
12,1.28,B12
13,1.15,B13

# Target: T2, B7-H3 on B7-H3-expressing CHO cells …
# Experiment: flow cytometry, B7-H3-expressing CHO cells, 10 ug/ml
# Protocol: Binding of anti-B7-H3 antibodies to cell lines was assessed by flow cytometry. Briefly, approximately 1.5 e5 B7-H3-expressing CHO cells (Genescript) or parent CHO cells (ATCC) were resuspended in FACS buffer (PBS/1% BSA/0.01% NaN3) containing 10 μg/ml of anti-B7-H3 antibodies and incubated for 60 min on ice. […] Cells were then washed twice, resuspended in FACS buffer, and read on an Attune Flow Cytometer (Life Technologies). Data are expressed as Mean Fluorescent Intensities (MFI).
row,MFI @ 10 ug/ml,Binder
1,78600 MFI,B1
2,80000 MFI,B2
3,75100 MFI,B3
4,81100 MFI,B4
5,60100 MFI,B5
6,74700 MFI,B6
7,66800 MFI,B7
8,44000 MFI,B8
9,41000 MFI,B9
10,81300 MFI,B10
11,43500 MFI,B11
12,69900 MFI,B12
13,78300 MFI,B13

# Target: T1, His-tagged human B7-H3
# Experiment: ELISA, coated His-tagged antigen, scFv-Fc 1 ug/ml
# Protocol: as §1
row,ELISA OD450 @ 1 ug/ml,Binder
1,1.72 OD450,B1
2,1.95 OD450,B2
3,2.19 OD450,B3
4,2.09 OD450,B4
5,2.2 OD450,B5
6,2.04 OD450,B6
7,1.76 OD450,B7
8,0.554 OD450,B8
9,0.794 OD450,B9
10,2.07 OD450,B10
11,1.39 OD450,B11
12,2.14 OD450,B12
13,2.16 OD450,B13

# Target: T3, His-tagged mouse B7-H3
# Experiment: ELISA, coated His-tagged antigen, scFv-Fc 1 ug/ml
# Protocol: as §1
row,ELISA OD450 @ 1 ug/ml,Binder
1,1.45 OD450,B1
2,1.51 OD450,B2
3,1.51 OD450,B3
4,1.85 OD450,B4
5,1.67 OD450,B5
6,1.83 OD450,B6
7,1.2 OD450,B7
8,0.184 OD450,B8
9,0.257 OD450,B9
10,1.88 OD450,B10
11,0.572 OD450,B11
12,1.68 OD450,B12
13,1.87 OD450,B13

# Target: T4, His-tagged cynomolgus monkey B7-H3
# Experiment: ELISA, coated His-tagged antigen, scFv-Fc 1 ug/ml
# Protocol: as §1
row,ELISA OD450 @ 1 ug/ml,Binder
1,1.91 OD450,B1
2,1.86 OD450,B2
3,1.92 OD450,B3
4,1.65 OD450,B4
5,1.81 OD450,B5
6,1.89 OD450,B6
7,1.77 OD450,B7
8,1.63 OD450,B8
9,1.49 OD450,B9
10,1.92 OD450,B10
11,1.53 OD450,B11
12,1.89 OD450,B12
13,1.95 OD450,B13
